From patent US20240209096A1 (INVETX, published 2024)
Numbering of substitutions follows the chain as printed. Names may count otherwise. Each block holds one binder with its values, some of them ahead of it.

How the values were obtained:
[1] = target: T1, canine FcRn (soluble large subunit p51 isoform X2 with 6xHis-tag, co-expressed with canine … (canine)); assay: SPR, IgG on protein L chip, FcRn in flow, pH 5.9, 1:1 fit; pH 5.9, 1:1 kinetic fit
T1 construct: Heterodimer made by co-expression in CHO cells, purified on HISTRAP FF, >95% pure by SEC; Both entries hold a 19-residue signal peptide at the N-terminus that should be removed (residues 1-19); also called FcRn complex
T1 chain: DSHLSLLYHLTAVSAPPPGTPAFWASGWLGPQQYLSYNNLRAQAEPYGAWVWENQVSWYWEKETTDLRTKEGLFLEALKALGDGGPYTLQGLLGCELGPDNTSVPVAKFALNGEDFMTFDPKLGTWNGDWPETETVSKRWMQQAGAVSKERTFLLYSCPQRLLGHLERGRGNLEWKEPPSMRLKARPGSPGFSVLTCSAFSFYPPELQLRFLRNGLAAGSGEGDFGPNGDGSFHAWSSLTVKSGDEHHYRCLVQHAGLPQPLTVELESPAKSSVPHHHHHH
T1 b2m: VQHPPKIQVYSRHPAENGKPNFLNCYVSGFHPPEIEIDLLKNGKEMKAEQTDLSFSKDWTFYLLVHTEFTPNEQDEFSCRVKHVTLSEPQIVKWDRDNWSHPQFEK
Protocol: (§1) The canine FcRn binding experiments at pH 5.9 and pH 7.4 were completed on a BIACORE™ T200 instrument. A Series S Protein L Sensor chip (Cytiva, Cat. No. BR29205137) was used to capture the antibody variants via the kappa (κ) light chain. The canine variants were captured onto the protein L chip at a flow rate of 10 μL/min for 60 seconds. Approximately 250 RUs of the variants were captured. For the low pH binding condition, 1×PBX-P+ (Cytiva, Cat. No. 28995084) was adjusted to pH 5.9. The canine FcRn was flowed over the sensor chip at 30 μL/min for 120 seconds contact time and 600 seconds dissociation time. Regeneration of the flow cells was completed by flowing over 10 mM glycine, pH 1.7 at 30 μL/min for 30 seconds. The data were evaluated by the BIACORE™ T200 Evaluation software (version 3.2.1) by fitting to a 1:1 kinetic interaction model.

[2] = target: T1, canine FcRn (soluble large subunit p51 …); assay: SPR, IgG on protein L chip, FcRn in flow, pH 7.4, steady state fit
Protocol: as §1
A subset of the Fc variants was tested for binding to canine FcRn at pH 7.4. For these experiments, 1×PBX-P+ (Cytiva, Cat. No. 28995084) was adjusted to pH 7.4. […] In addition, the pH 7.4 data were evaluated by the BIACORE™ T200 Evaluation software (version 3.2.1) by fitting to steady state affinity model. The kinetic binding data for the variants at pH 7.4 along with the binding data at pH 5.9 for these variants are shown in Table 7 below.

[3] = target: T1, canine FcRn (soluble large subunit p51 …); assay: SPR, IgG on protein L chip, FcRn in flow, pH 5.9, 1:1 fit
Protocol: as §1

[4] = target: T1, canine FcRn (soluble large subunit p51 …); assay: SPR, IgG on protein L chip, FcRn in flow, pH 5.9, kinetic data
Protocol: as §1

- Kd [1]: 231 nM
- koff [1]: 0.0927 s⁻¹
- kon [1]: 285000 M⁻¹ s⁻¹
B1: IgG with wild-type canine IgGB Fc (antibody)
heavy: EVQLVESGGDLVAPSQSLSITCTVSGMSLTSNSISWVRQPPGRGLEWLGTIWSNGGTDYTDAVKGRFTISRDNAKNTVYLQMNSLRAEDTAMYYCAQIYYYDADYLHWYFDFWGQGTLVTVSSASTTAPSVFPLAPSCGSTSGSTVALACLVSGYFPEPVTVSWNSGSLTSGVHTFPSVLQSSGLYSLSSMVTVPSSRWPSETFTCNVAHPASKTKVDKPVPKRENGRVPRPPDCPKCPAPEAAGGPSVFIFPPKPKDTLLIARTPEVTCVVVDLDPEDPEVQISWFVDGKQMQTAKTQPREEQFNGTYRVVSVLPIGHQDWLKGKQFTCKVNNKALPSPIERTISKARGQAHQPSVYVLPPSREELSKNTVSLTCLIKDFFPPDIDVEWQSNGQQEPESKYRTTPPQLDEDGSYFLYSKLSVDKSRWQRGDTFICAVMHEALHNHYTQESLSHSPG
light: EIVMTQSPASLSASQEEKVTITCRASEGISNNLAWYQQKPGQAPKLLIHATSSLQTGVPSRFSGSGSGTDFTLTISSLQPEDFATYYCQQGYQFPLTFGQGTKVEIKRNDAQPAVYLFQPSPDQLHTGSASVVCLLNSFYPKDINVKWKVDGVIQDTGIQESVTEQDKDSTYSLSSTLTMSSTEYLSHELYSCEITHKSLPSTLIKSFQRSECQRVD
notes: Full chains; canine IgGB constant domain with MALA mutations; variable domains of WO 2023/97275; also called Wild-type Fc

- Kd [2]: 2070 nM
- Kd [3]: 11.5 nM
- koff [3]: 0.0321 s⁻¹
- kon [3]: 2.78e+06 M⁻¹ s⁻¹
- Kd [4]: 11.5 nM
- koff [4]: 0.0321 s⁻¹
- kon [4]: 2.78e+06 M⁻¹ s⁻¹
B2: IgG with canine IgGB Fc variant N434H, T286W (antibody)
heavy: B1 heavy with T295W, N445H
light: B1 light
notes: Full chains; canine IgGB constant domain with MALA mutations; variable domains of WO 2023/97275

- Kd [2]: 3450 nM
- Kd [3]: 21.3 nM
- koff [3]: 0.0518 s⁻¹
- kon [3]: 2.44e+06 M⁻¹ s⁻¹
- Kd [4]: 21.3 nM
- koff [4]: 0.0518 s⁻¹
- kon [4]: 2.44e+06 M⁻¹ s⁻¹
B3: IgG with canine IgGB Fc variant N434H, T286L (antibody)
heavy: B1 heavy with T295L, N445H
light: B1 light
notes: as for B2

- Kd [2]: 2170 nM
- Kd [3]: 15.7 nM
- koff [3]: 0.0318 s⁻¹
- kon [3]: 2.04e+06 M⁻¹ s⁻¹
- Kd [4]: 15.7 nM
- koff [4]: 0.0318 s⁻¹
- kon [4]: 2.04e+06 M⁻¹ s⁻¹
B4: IgG with canine IgGB Fc variant N434H, T286Y (antibody)
heavy: B1 heavy with T295Y, N445H
light: B1 light
notes: as for B2
